Assay results reported in the nanobody polyreactivity screen of Harvey et al. (2022).

Assay: yeast display, Sf9 membrane polyspecificity reagent, FACS + sequencing; frameworks hold sequencing errors
Procedure, shortened: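 Polyreactivity labels are assigned by the sorting gate from which each nanobody was recovered. The gates were low and high (top ~1%), set on anti-HA fluorescence for expression and streptavidin fluorescence for reagent binding. Before sorting, galactose-induced (36–48 hours) yeast display cells were stained for 1 hour at 4 °C with 10% biotinylated, detergent-solubilized Sf9 membrane reagent.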

Sequence | polyreactivity (PSR sort gate)
QVQLVESGGGLVQAGGSLRLSCAASGRIFYSYTMGWYRQAPGKEREMVAGINRSVGSTYYADSVKGRFTISRDNAKNTVYLQMNSLKPEDTAVYYCAAGSRRRSYYTFSSVHGHYYWGQGTQVTVSS | high polyreactivity
QVQLVESGGGLVQAGGSLRLSCASSGSIFVHNDMGWYRQAPGKERELVARINTGGGTNYADSVKGRFTISRDNSKNTVYLQMNRLKPEDRAVYYCAAVLFVFYDEYGYWEYFSQYDYWGQGTKVTVSS | low polyreactivity
QVQLLESGGGLVQAGGSLRLSCAASGRIFDYYAMGWYRQAPGKERELVAAISDSGDSTYYADSVKGRFTISRDNAKNTVYLQMNRLKPVDTAVYYCAAQGGWIPAQDVRSSWGYNYWGQGTQVSVSS | high polyreactivity
QVQLVESGGGLVQAGGSLRLSCAASGIIFTYNAMGWSRQAPGKERELVAAINSSGGSTNYADSVKGRFTISRDNAKNTVYLQMNSLKPEDTAVYYCAARDATYYGVWRYYGIDDYWGQGTQVTVSS | low polyreactivity
QVQLVESGGGLVQAGGSLRLSCAASGSIFRVYVMGWYRQAPGKERELVARIRYRSGRTNYADSVKGRFTISRDNAKNTVYLQMNSLKPEDTAVYYCSADVYWPTAGDYTQKRDYWGLGTQVTVSS | high polyreactivity
QVQLVESGGGLVQAGGSLRLSCDASGSIFYYNAMGWYRQAPGKERELVAAISVSGGSTYYADSVKGRFTISRDNAKNTVYLQMNSLKPEDTAVYYCAAEWLYYYWLPGRADYLEYDYWGQGTQVTVSS | low polyreactivity
QVQIVESGGGLVQAGGSHRLSCADSGRTFGVNTMGWYRQAPAKERQFVAAISSRSGSTYYADSVKGRFTISRDNAKNNVYLQMNSLKPEDTAVDYCAKGPLPRAGVKFDYWGHGTQVTVSS | low polyreactivity
QVQLVESGGGLVQAGGSLRLSCAGSGFIFTDYAMGWYRQAPGKERELVATISWSGSSTYYADSVKGRFTISRDNAKNTVYLQMNSLKPEDTAVYYCAAEFWYTYPYLVDYWGQGTQVTVSS | low polyreactivity
LVQLVESGGGLVEAGGSLRLSWAASGIIFYYYAMGWYRQAPGKEREFVAGIRWSSGSTYYADSVKGRFTISRDNAKNTVYLQMNSLKPEDTAVYYCAAAYLSWYGGYYYWGQGTQVTVSS | low polyreactivity
QVQLVESGGGLVQAGGSLRLSCAASGSIFYRYAMGWYRQAPGKERELVAAISSGSSTHYADSVKGRFTISRDNAKNTVYLQMNSLKPEDTAVYYCAARYRAFTSTRRFDYWGQGTQVTVSS | high polyreactivity
QVQLVESGGGLVQAGGSLRLSCAASGRTFGVNAMGWYRQAPGKERELVAAISRSGGSTYYADSVKGRFTISRDNAKNTVYLQMNSLKPEDTAVYYCAKSYFGNHLTGFGYWGQGTQVTVSS | low polyreactivity
QVQLVESGGGLVQAGGSLRLSCAASGRTVGWYAMGWYRQAPGKERELVAAITWRGGSTYYADSVKGRFTISRDNAKNTVYLQMTSLKPEDTAVYYCAAAAEKRSYYWGQGTQVTVSS | high polyreactivity
QVQHVESGGRLVQAGGSLRLSCAASGSIFAAYAMGWYRQAPGKERELVAAISRSGASTYYADSVKGRFTISRDNAKNTVYLQMNSLKPVDTAVYYCAADTYAYPHDNYDYWGQGTQVTVSS | low polyreactivity
QVQLVESGGGLVQAGGSLRLSCAASGRIFAYYAMGWYRQAPGKERELGATITGGGDRTYYADSVKGRFTISRDNAKNTVYLQMNSLKPEDTAVYYCNARVWYYSPYYYWGQRTQVTVSS | low polyreactivity
QVQLVESGGGLVQAGGSLRLSCASSGPIFAYNAIPGYRQAPGKERELVADISSGGNTYYADSVKGRFTISRDNAKNTVYLQMNSLKPEDTAVYYCAADIAWYTHDHRIFDYWGQGTQVTVSS | low polyreactivity
QVQLVESGGGLVQAGGSLRLSCAASGRTFKLYAMGWYRQAPGKERELVATIRRSGTRTYADSVKGRFTISRDNAKNTVYLQMNSLKPEDTAVYYCAATTYGYVYHRYDYWGQGTQVTVSS | high polyreactivity
QVQLVESGGGLVQAGGSLRVSCAASGSTFILNAMGWYRQAPGKERELVATISSSDTSTYYADSVKGRFTISRDHAKNTVYLQMNSMKPEDTAVYYCNADYYTTAYLQRVYHYGVEYDYWGQVTQVTVSS | low polyreactivity
QVQLVESGGGLVQAGGSLRLSCAASGSIFSYYAMGWYRQAPGKERELFADINLDDGRTYYADSVKGRFTISRDNAKNTVYLQMNSLKPEDTAVYYCAADEFYSFRYLFGPTFDYWGQGTQVTVSS | high polyreactivity
QVQRVESGGGLVQAGGSLRLSCAASGYTLGGYAMGWYRQAPGKERELVAAISSSGTSTYYADSVKGRFTISRDNAKNTVYLQMNSLKPEDTAVYYCNAYYLTYSAGDYWGQGTQVTVSS | low polyreactivity
QVQLVESGGGLVQAGGSLRLSCAASGRIFQKYAMGWYRQAPGKERELVAVITGRGGSTYYADSVKGRFTISRDNAKNTVFLLMNSLKKEDTAVYYCASVPGYWGQGTQVTVSS | high polyreactivity
QVQLVESGGGLVQAGGSLRLSCAASGSTFPTYAMGWYRQAPGKERELVAAITWSGGSTYYADSVKGRFTISRDNAKNTVYLLMNSLKPEDTAVYYCAKSTGYGRRQKRYDWGQGSQVTVSS | high polyreactivity
QVQLVESGGGLVQAGGSLLLSCAASGRTFQDNAMGWYRQAPGKERELVAAISWRGGSTNYADSVKGRFTISRDNAKNTVYLQMNSLKPEDTAVYYCTRDPRKYGKLDYWGQGTQVTVSS | low polyreactivity

Sequence | polyreactivity (PSR sort gate)
QVQLVESGGGLVQAGGSLRLSCASSGSTFYHYAMVWYRQAPGKERELVAAISWSGGSTYYADSVKGRFTISRDNAKNTVYLQMNSLKPEDTAVYYCAARGRARQRTSFEYWGQGTQVTVSS | high polyreactivity
QVQLVESGGGLVQAGGSLRLSCAASGRIFVPNTMGWYRQAPGKERELVAAINTGGRTYYADSVKGRFTISRDNAKNTVYLQMNSLKPEDTAVYYCAVFSLKLGYIYDYWGQGTQVTVSS | high polyreactivity
QVQLVESGGGLVQAGGSLLLSCSASGRNFRANAMGWYRQAHRKERELVAAITSTGDRTYYADSVKGRFTISRDNAKNTVYLQMNSLKQEDTAVYYCAAENNRYGGYRKYDYWGLGTQVTVSS | low polyreactivity
QVQLVESGGGLVQAGGRLRLSCAASGYIFNYDMGWYRPAPGKERELVAAINYSGRTYYADSVKGRFTISRDNAKNTVYLQMNRLKAEDTAVYYCAARIIVDDVGTKYYYWGQGTQVTVSS | high polyreactivity
QVQLVESGVGLVQAGGSLRLSCAASGITFTSYAMGWYRQAPVKERELVAAISSSGVRTYYADSVKGRFTISRDNSKNTVYLQMNSLKPEDTAVYYCATRRRVLYGYDYWGQGTQVTVSS | high polyreactivity
QVQLVETGGGLVQAGGSLRLSCAPSGSTFNSNVMGWYRQAPGKERELLAAISRSGGNTYYADSVKGRFTISRDNAKNTVYLQMNSLKQEDTAVYYCNVVFFSYYHGAYRGYDYWGQGTQVTVSS | high polyreactivity
QLQLVESGGGLVLAAGSLRLSCAASGYTFKSYAMGCSRQAPGKERELVAAISNGGNTYYADSVKGRFTISRDNAKNTVYIQMNSLKPEDTAVYYCAARYGYYYSRYDHWGQGTQVTVSS | low polyreactivity
QVQLVESGGGLVQAGGSLRLSCAASGFIFLGYAMGWYRPAPGKERELVATITWRGGSTYYADSVKGRFTISRDNAKNTVYLQMNSLKPEDTAVYYCAATRGWLHSFARDDHDYWGQGTQVTVSS | high polyreactivity
QVQLVESGGGLVQAGGSLRLSCAASGSIILQNAMGWYRQAPGKERELVAAITNGGSTNYADSVKGRFTISRDNAKNTVYLQMNSLKPEDTAVYYCAAYPLYTGSYDRGGYWGQGTQVTVSS | low polyreactivity
QLQLQESGRGLVQAGGSLRLSCAASGNIVDADIMGWYRQAPGKERELVASITDGGSTNYADSVKGRFTISRDNAKNTVYLQMNSLKTEDTAVYYCAAIAYPVIPTYFDYDSEYFYWGQGTQVTVSS | low polyreactivity
QVQLVESGGGLVQAGGSLRLSCAASGIIFPNYAMGWYRPAPGKERELVAAIDDDASTTYADSVKGRFTISRDNAKNTVYLQMNSLKPEDTAVYYFAADGFDWYDWRWTYDYWGQGTQVTVSS | high polyreactivity
QVQLVESGGGLVQAGGSLRLSCAASGFIFGDYAMGWYRQAPGKERELVADINWTGGSTYYADSVKGRFTISRDNAKNTVYLQMNSLKPEDTAVYYCAKDDYAFLITWVDYWGQGTQVTVSS | low polyreactivity
QVQLVESGGGLVQAGGRLRLSCAASGRIFKFYAMGWYRQAPGKERELVAAIRRGGTTNYADSVKGRFTISRDNAKNTFYLQMNSLKPEDTAVYFCAADGWYRVLTGLVSSWKYWGQGTQVTVSS | high polyreactivity
QVQLVESGGGLVQAGGSLRLSCAASGSTFLNNAMGWYRQAPGKERELVATITSGGITNYADSVKGRFTISRDNEKNTVYLQMNSLKPEDTAVYYCNADTWGFTYYYWGQGTQVTVSS | low polyreactivity
QVQLVESGGGLVQAGGSLRLSCAASGFTFRYYAMGWYRQAAGKDRELVAAISSGGRTYYADSVKGRFKISRDNAKNTVYLQMNSLKPADTAVYYCNASRHFRRVEYDYWGQGTQVTVSS | high polyreactivity
QVQLVESGGGLVQAGGSLSLSCAASGLNFVKNTMGWYRQAPGKETELVAGISQRGGSTYYADSEKGRFTISRDNAKNTVYLQMNSLKPEETAVYYCAAYSRTFEGHRGGYWGQGTQVTVSS | high polyreactivity
QVQLVESGGGLVQAGGSLRLSCAASGSTFTGYAMGWYRQAPGKERELVAAISISGGRTFYADSVKGRFTISRDNAKNTVYLQMNSLKPEDTAVYYCAAYLRGSKYSFDYWGQGTQVTVSS | high polyreactivity
QVQLVESGGGLVQAGGSLRLSCAASGSTFYDNAMGWYRQAPGKERELVAAINWSSDTTYYADSVKGRFTISRDNAKNTVYLQMNSLKPEDTAVYYCATDSAYRGYDYWGQGTQVTVSS | low polyreactivity
QVQLVESGGGLVQAGGSLRLSCAASGRTFDSNTMGWYRQAPGKERELVAAITGSGGRTYYADSVKGRFTISRDNAKNTVYLQMNSLKPEDTAVYYCNADSLYRYGSQYYYWGQGTQVTVSS | high polyreactivity
QVQLVESGGGLVQAGGSLRLSCAASGRTFFRYVMGWYRQAPGKERELVAAISRSGGSTYYADSVKGRFTISRDNAKNTVYLQMNSLKPEDTAVYYCNTVARSTVVPTEFDYWGQGTQVTVSS | high polyreactivity
QVQLVESGGCLVQAGGSLRLSCDASGIIFRGNAMGWYRHAPGTERELVAAISSAGSTNYSDSVKGRFTISRDNAKNTVYLQMNSLKPEDTAVYYCAKGSIKYHVTLRGRGYYWGQGTQVTVSS | low polyreactivity
